Data on one molecule can be found in article PMC9317960 (Biochemical Journal, 2022).

The assay has as its target T1, SCRIB PDZ3 K1040A (human, UniProt Q14160 1002-1094, K1040A).
T1 sequence: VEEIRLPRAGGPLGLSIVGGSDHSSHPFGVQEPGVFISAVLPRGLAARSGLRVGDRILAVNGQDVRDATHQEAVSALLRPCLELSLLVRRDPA
The assay can be described thus: ITC. As to conditions: both partners purified.

By Kd is commonly meant a measure of binding affinity in units of concentration. Higher therefore signals weaker binding. Broadly, the stoichiometry N is a count of units in the complex or per binding partner.

For LRLESSII [TBEV NS5_CTN peptide (C-terminal PBM of NS5)], the equilibrium dissociation constant (Kd) came out at 12.5 µM, the dH was -6.7 kcal/mol and the “stoichiometry N” value amounted to 0.9.
